Experimental data reported in doi:10.1101/2025.09.09.675193 (bioRxiv, 2025).
Square brackets hold non-standard residues; d marks the D form. Ends that are not written are not given here. * marks the point of attachment. 5FAM = O=C1OC2(c3ccc(O)cc3Oc3cc(O)ccc32)c2ccc(C(=O)*)cc21; pT = C[C@@H](OP(=O)(O)O)[C@H](N)C(=O)O; pS = N[C@@H](COP(=O)(O)O)C(=O)O

T1: DDIAS OB fold WT (Homo sapiens, UniProt Q8IXT1 1-168)
T1 sequence: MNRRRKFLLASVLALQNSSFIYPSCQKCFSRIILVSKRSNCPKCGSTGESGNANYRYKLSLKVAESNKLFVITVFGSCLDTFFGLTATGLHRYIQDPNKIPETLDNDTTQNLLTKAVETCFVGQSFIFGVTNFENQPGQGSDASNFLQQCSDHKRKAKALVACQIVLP

T2: DDIAS OB fold C25A/C28A (Homo sapiens, UniProt Q8IXT1 1-168, C25A;C28A)
T2 sequence: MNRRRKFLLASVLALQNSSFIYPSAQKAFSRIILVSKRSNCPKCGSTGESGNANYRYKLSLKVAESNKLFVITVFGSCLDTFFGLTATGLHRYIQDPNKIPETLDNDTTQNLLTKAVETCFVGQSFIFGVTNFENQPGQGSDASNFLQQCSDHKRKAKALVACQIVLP


Legend:
[1] = target: T1, DDIAS OB fold WT; assay: EMSA
[2] = target: T2, DDIAS OB fold C25A/C28A; assay: EMSA
[3] = target: recombinant TOPBP1 BRCT domains 4+5 (residues 548-741) (human, UniProt Q92547 548-741); assay: fluorescence polarisation
[4] = target: recombinant TOPBP1 BRCT domains 7+8 (residues 1263-1495) (human, UniProt Q92547 1263-1495); assay: fluorescence polarisation
recombinant TOPBP1 BRCT domains 7+8 (residues 1263-1495), sequence (Q92547 1263-1495): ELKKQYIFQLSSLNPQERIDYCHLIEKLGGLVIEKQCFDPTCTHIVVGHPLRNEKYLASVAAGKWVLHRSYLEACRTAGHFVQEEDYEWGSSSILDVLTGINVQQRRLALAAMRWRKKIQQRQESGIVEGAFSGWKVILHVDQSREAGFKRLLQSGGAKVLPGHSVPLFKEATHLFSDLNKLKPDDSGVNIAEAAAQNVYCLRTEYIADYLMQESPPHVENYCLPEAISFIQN

recombinant TOPBP1 BRCT domains 4+5 (residues 548-741), sequence (Q92547 548-741): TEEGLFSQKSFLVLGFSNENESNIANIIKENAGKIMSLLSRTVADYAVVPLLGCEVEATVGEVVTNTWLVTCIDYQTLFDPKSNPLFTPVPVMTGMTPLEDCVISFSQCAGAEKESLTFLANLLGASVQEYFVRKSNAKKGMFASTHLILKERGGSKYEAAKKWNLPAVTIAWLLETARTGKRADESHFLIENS

Binder	binding result [4]	binding result [1]	other results
GATGAGATTGAGGCTGGCCTGCAGGCATGCAAGCACCTGG (ssDNA) [Cy5 40-nt ssDNA]		binds	binding result [2]: no binding
Cy5 40-bp dsDNA (dsDNA) DNA 1: GATGAGATTGAGGCTGGCCTGCAGGCATGCAAGCACCTGG DNA 2: CCAGGTGCTTGCATGCCTGCAGGCCAGCCTCAATCTCATC		no binding	
5FAM-GSGETDSDEWVPP[pT]TQK (also: phosphothreonine at Thr868 (position not mappable)) [DDIAS-pT868 peptide, 5-carboxy-fluorescein labelled]			binding result [3]: binds

Further lines, with some results ahead:

binding result [4]	Binder	binding result [1]	other results
binds	5FAM-GSGEGSYDA[pS]ADLFDD (also: phosphoserine at Ser676 (S6 or S10)) [DDIAS-pS676 peptide, 5-carboxy-fluorescein labelled]		
binds	5FAM-GSGETRSAW[pS]PELFS (also: phosphoserine at Ser993 (position not mappable)) [DDIAS-pS993 peptide, 5-carboxy-fluorescein labelled]		
